Reference: article PMC3879356

Molecular target: cytosolic domain of CAML (CAMLcyt), GST-tagged
Assay: SPR; WRBcc or CAMLcyt immobilised on a HC1000m sensorchip (Reichert SR7000DC); analyte TRC40wt or TRC40wt/RAMP4 in PBS, 15°C, 40 µl/min, injected 270 s, dissociation 12 min; average of three independent measurements

Sequence of TRC40/RAMP4 complex (MBP-TRC40/HZZ-RAMP4op protein complex) (O43681 whole entry): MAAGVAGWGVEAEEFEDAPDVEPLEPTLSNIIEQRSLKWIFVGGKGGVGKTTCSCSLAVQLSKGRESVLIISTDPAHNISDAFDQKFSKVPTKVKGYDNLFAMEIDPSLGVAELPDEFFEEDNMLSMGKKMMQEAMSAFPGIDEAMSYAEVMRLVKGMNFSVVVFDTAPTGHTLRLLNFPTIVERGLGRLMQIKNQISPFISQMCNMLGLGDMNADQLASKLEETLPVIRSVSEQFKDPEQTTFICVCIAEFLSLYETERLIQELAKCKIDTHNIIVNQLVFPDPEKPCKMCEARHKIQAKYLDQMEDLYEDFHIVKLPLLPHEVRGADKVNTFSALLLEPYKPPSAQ
Sequence of TRC40/RAMP4 complex (MBP-TRC40/HZZ-RAMP4op protein complex) (Q9Y6X1 whole entry): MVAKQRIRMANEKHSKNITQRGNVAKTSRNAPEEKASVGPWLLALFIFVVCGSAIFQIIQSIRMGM

Kd: 34 nM
Substance: TRC40/RAMP4 complex (MBP-TRC40/HZZ-RAMP4op protein complex) (from UniProt O43681 1-348; Q9Y6X1 1-66)
